Patent US20110312518A1

Tests used:
[1] = system: T1, Src peptide substrate KVEKIGEGTYGVVYK
T1 sequence: KVEKIGEGTYGVVYK

[2] = target: phospho-CrkL recombinant protein; assay: sandwich immunoassay, 96-well plate, 12 hours: Y244 capture, phospho-CrkL analyte, 4G10 and FITC anti-mouse detection
[3] = target: phospho-CrkL recombinant protein; assay: sandwich immunoassay, microfluidic chip, 1 hour: Y244 capture, phospho-CrkL analyte, 4G10-coated beads counted

Current limit of detection [2] [nM]	Current limit of detection [3] [pM]	Substance	detection limit (kinase activity, beads bound/counted) [1]
–	–	Src kinase	resulting in a detection limit of 100 fM
1	100	rabbit anti-CrkL monoclonal antibodies (clone Y244, Novus Biologicals #NB110-56895) (antibody)	–
